{"source": "paper PMC8423902", "biological_target": "trimeric SARS-CoV-2 ectodomain (S 6P trimer, residues 16-1206) (SARS-CoV-2) (UniProt P0DTC2)", "experiment": "cryo-EM structure", "data": [{"substance": "trimeric SARS-CoV-2 ectodomain (S 6P trimer, residues 16-1206) (from UniProt P0DTC2 16-1206)", "values": [{"measurement": "stoichiometry N", "result": 3}]}]}
